The source of these data is the supplement of paper PMC9170038.

The test system of this series is MS2 coat protein. Description: apparent KD of MS2 coat protein; designed switch direction (-1 OFF switch, 1 ON switch): -1; higher = weaker reporter binding. Put shortly: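 Each step of the titration lasted 0.8–1.5 h at the lowest concentration and 10–20 min at the highest. The protein, SNAP-549-labelled MS2 coat protein, went from 0.7 or 1.5 nM doubling to 3 µM over RNA switches transcribed on Illumina chips by stalled E. coli RNA polymerase. Normalised cluster fluorescence was curve-fitted, and the per-design median over clusters is given as apparent KD.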

Where [1] appears, read: Eterna round: R95, input ligand: FMN 200 uM.
The mark [2] stands for this setting: Eterna round: R95, input ligand: microRNA oligo, concentration not stated.
Setting [3] is: Eterna round: R95, input ligand: none.
[4] abbreviates: input ligand: microRNA oligo, concentration not stated.

Turning to “CGGUGCUGAGGAUAUACAUGAGGAUCACCCAUGUGUUCCAGCUAGCGUACUGGCAGAUGUAGAAGGCGGUACUG [JL-ex3-3.42 Brourd mod] (puzzle: Exclusion 3)”, the “apparent KD of MS2 coat protein” value by setting is: under setting [1], 0.0789 µM; under setting [2], 0.0199 µM; under setting [3], 0.019 µM.
With “CGGUGUAGAGGAUAUACGUGAAUAUAAGAACAUAAUAAUUAACAUGAGGAUCACCCAUGUAGAAGGCUAUAGCG [JR_Ex2_Sub081] (Eterna round: R97, puzzle: Exclusion 2)”, the “apparent KD of MS2 coat protein” value was determined as 0.0343 µM (input ligand: FMN 200 uM) and 0.0167 µM (input ligand: none).
The matching figures for “CGGUGUAGAGGAUAUACGUGAAUUUUGUUAUUUUUUAAUUUACAUGAGGAUCACCCAUGUAGAAGGCUAUAGCG [JR_Ex2_Sub086] (Eterna round: R97, puzzle: Exclusion 2)”: 0.0234 µM and 0.0219 µM.
The matching figures for “CGGUGUAGAGGAUAUACGUGGAUGUAAAUUCAUGAUAUUUUACAUGAGGAUCACCCAUGUAGAAGGCUAUAGCG [JR_Ex2_Sub078] (Eterna round: R97, puzzle: Exclusion 2)”: 0.0742 µM and 0.229 µM.
As for “CGGUGUCAUGUAAGGAUAUCGCAUCCCAGCGGAUACGAGAAGGUACAUGAGGAUCACCCAUGUACGAUAAAAUA [Atzabian] (puzzle: Brourd's mod of Exclusion 4)”, under setting [2], the “apparent KD of MS2 coat protein” value amounted to 0.0125 µM.
Same read-out and setting: as for “CGUACUGAAGUAAGGAUAUUGUCUCGGAUACGAAACAAGAAGGUACAUGAGGAUCACCCAUGUUGACAGUACGA [Malc #30 mod 8] (puzzle: Brourd's mod of Exclusion 4)”, the figure is 0.014 µM.
Regarding “CGUACUGAAGUUAGGAUAUUGUCUCGGAUACGAAACAAGAAGGGACAUGAGGAUCACCCAUGUAGACAGUACGA [Malc #30 mod 4] (puzzle: Brourd's mod of Exclusion 4)”, the “apparent KD of MS2 coat protein” value came out at 0.0247 µM under setting [1], 0.0271 µM under setting [2] and 0.0277 µM under setting [3].
For “CGUAGCAAAGUGAGGAUAUCUAGAGCGAUAGCUCUAGAGAAGGCACAUGAGGAUCACCCAUGUGAUUAGCUACG [BmEx4/9-A4] (Eterna round: R97, puzzle: Brourd's mod of Exclusion 4)”, the “apparent KD of MS2 coat protein” value runs as follows: (input ligand: FMN 200 uM) 0.146 µM; (input ligand: none) 0.0278 µM.
As to “CGUAUGUGAGGAUAUGACAAUGGUAUCUUCGGAUACCAUUGUCAGAAGGUACAUGAGGAUCACCCAUGUAGAUC [Exclusion 4 - Mod Brourd Ex 4-3: 20 v.3] (puzzle: Exclusion 4)”, under setting [2], the “apparent KD of MS2 coat protein” value was 0.024 µM.
As to “CGUAUGUGAGGAUAUGGUCUCGAUGACAUGAGGAUCACCCAUGUAACAUGGGACUUGUGACUAGAAGGCACUAACG [JR_Ex5_Sub023] (Eterna round: R97, puzzle: Exclusion 5)”, the “apparent KD of MS2 coat protein” value is 0.0291 µM (input ligand: FMN 200 uM) and 0.0174 µM (input ligand: none).
“CGUCGACAUGUAGGAUAUCUGCACGUUUAGUGCAGAGAAGGACAUGAGGAUCACCCAUGUAGAUCACGACGAAUUAAUUUAAUU [ENG1/6-C2] (Eterna round: R96, puzzle: Exclusion NG 1)”: the “apparent KD of MS2 coat protein” value by setting is: (input ligand: FMN 200 uM) 0.024 µM; under setting [4], 0.205 µM; (input ligand: none) 1.54 µM.
Turning to “CGUCUGUAAGGAUAUGGUAGCAUUUACAUGAGGAUCACCCAUGUUACAUGGGACUAGUGACUAGAAGGUACGAACG [EX5 #54] (Eterna round: R97, puzzle: Exclusion 5)”, the “apparent KD of MS2 coat protein” value (input ligand: FMN 200 uM) is 0.106 µM and the “apparent KD of MS2 coat protein” value (input ligand: none) stood at 0.142 µM.
“CGUGACUCAGGAUAUCUAUAGUAUCACAUGAGGAUCACCCAUGUCCAGCGAAAGCUGGAGGGAGAAGGGAGUCACG [Fiskers Ex 5 - 42] (Eterna round: R96, puzzle: Exclusion 5)”: the “apparent KD of MS2 coat protein” value is, setting by setting: (input ligand: FMN 200 uM) 0.0741 µM; under setting [4], 0.23 µM; (input ligand: none) 0.188 µM.
As for “CGUGACUCAGGAUAUCUAUAGUAUCACAUGAGGAUCACCCAUGUCCAGCGAAAGCUGGAGGGAGAAGGGAGUCACG [Fiskers Ex 5 - 42] (puzzle: Exclusion 5)”, the “apparent KD of MS2 coat protein” value runs as follows: under setting [1], 0.0713 µM; under setting [2], 0.13 µM; under setting [3], 0.229 µM.
The like results for “CGUGACUCAGGAUAUGUAUAAUAUCACAUGAGGAUCACCCAUGUCCAGCGAAAGCUGGAAGCAGAAGGGAGUCACG [Fiskers Ex 5 - 39] (puzzle: Exclusion 5)” were, in that order, 0.0851 µM, 0.0416 µM and 0.111 µM.
Regarding “CGUGACUGAGGAUAUCUAUGAUAUCACAUGAGGAUCACCCAUGUCCAGCGAAAGCUGGAGGGAGAAGGCAGUCACG [Fiskers Ex 5 - 30] (puzzle: Exclusion 5)”, the “apparent KD of MS2 coat protein” value by setting is: under setting [1], 0.0615 µM; under setting [2], 0.22 µM; under setting [3], 0.185 µM.
On to “CGUGACUGAGGAUAUCUAUGGUAUCACAUGAGGAUCACCCAUGUCCAGCGAAAGCUGGAGGGAGAAGGCAGUCACG [Fiskers Ex 5 - 32] (puzzle: Exclusion 5)”, for which the “apparent KD of MS2 coat protein” value is, setting by setting: under setting [1], 0.117 µM; under setting [2], 0.186 µM; under setting [3], 0.25 µM.
With “CGUGCGUAUGUGAGGAUAUGCUGGUCCUUGGAUCAGCAGAAGGCACAUGAGGAUCACCCAUGUGGUGUCGUACA [salish99_Bmod_Ex4_016] (puzzle: Brourd's mod of Exclusion 4)”, under setting [2], the “apparent KD of MS2 coat protein” value is 0.198 µM.
Regarding “CGUGCGUAUGUGAGGAUAUGCUGGUCCUUGGCUCGGCAGAAGGCACAUGAGGAUCACCCAUGUGGUGUCGUACA [salish99_Bmod_ex4_070] (puzzle: Brourd's mod of Exclusion 4)”, under setting [2], the “apparent KD of MS2 coat protein” value came out at 0.0694 µM.
In the case of “CGUGGAUGAAAGGAUAUUGAGGUCUGACUGCCACAAGAAGGUUCAACAUGAGGAUCACCCAUGUCUGAUCCUAA [Xeanorti] (Eterna round: R97, puzzle: Exclusion 6)”, the “apparent KD of MS2 coat protein” value by setting is: (input ligand: FMN 200 uM) 0.0474 µM; (input ligand: none) 0.0142 µM.
Consider “CGUGUCUUUUACGUGAGUGGUGGGUGCAACAGGUGGGUUACAUGAGGAUCACCCAUGUCCUCACUUGCUCGUCUUUU [Grok-var2-08] (puzzle: Sensor v3, turn-off variant 2)”, for which the “apparent KD of MS2 coat protein” value amounted to 0.0767 µM under setting [1], 0.0535 µM under setting [2] and 0.0698 µM under setting [3].
As for “CGUUGAUGAGGAUAUCGAUGUUAGUACAUGAGGAUCACCCAUGUUAUCCAAGUGUCGGAUCGAGAAGGUAUUGGAC [LRO-Ex5-19] (puzzle: Exclusion 5)”, under setting [2], the “apparent KD of MS2 coat protein” value was 0.241 µM.
Take “CUAGAUCUUCGGAUCUAGUACAUGAGGAUCACCCAUGUGACGAGUUGAUCCUCAUACAAGCUUUUUGCUCGUCUUAU [Sensor v3 - Turn-off variant 1 - 16] (puzzle: Sensor v3, turn-off variant 1)”: the “apparent KD of MS2 coat protein” value under setting [1] came out at 0.0193 µM, the “apparent KD of MS2 coat protein” value under setting [2] stood at 0.0213 µM and the “apparent KD of MS2 coat protein” value under setting [3] was determined as 0.0119 µM.
As to “CUAGCGAUUGUAGGAUAUCGGACUGUUUCAGUCUGAGAAGGACAUGAGGAUCACCCAUGUGAAGGAUCGUGAGAUCCACGCUAG [JL ENG1 3.79] (Eterna round: R96, puzzle: Exclusion NG 1)”, the “apparent KD of MS2 coat protein” value was 0.112 µM (input ligand: FMN 200 uM), 0.0179 µM under setting [4] and 0.022 µM (input ligand: none).
As to “CUAUGAGUAGGAUAUGAGCCAAAAUACAUGAGGAUCACCCAUGUCGGGUUCAUGGAGGGCUCAGAAGGAUUCAAUA [Exclusion 5 - Laarte Mod2] (Eterna round: R97, puzzle: Exclusion 5)”, the “apparent KD of MS2 coat protein” value is, setting by setting: (input ligand: FMN 200 uM) 0.0598 µM; (input ligand: none) 0.0171 µM.
Turning to “CUAUUGUGAGGAUAUCAGUAGUAGAACAAUAGUACUACUACUGAGAAGGCACAUGAGGAUCACCCAUGUUCCUC [Fiskers Ex 4 Super stable 44 mod 7] (puzzle: Exclusion 4)”, under setting [2], the “apparent KD of MS2 coat protein” value turned out to be 0.0573 µM.
Consider “CUCCGCGGAGGAUAUGCAGCCUUCGACAUGAGGAUCACCCAUGUACAAGAUCCCUUGUCGGCAGAAGGCCGGGAGA [Usena] (Eterna round: R97, puzzle: Exclusion 5)”, for which the “apparent KD of MS2 coat protein” value runs as follows: (input ligand: FMN 200 uM) 0.114 µM; (input ligand: none) 0.448 µM.
On to “CUCCGGCGUGUAGGAUAUGGUUCCGAUUAGGAUCCAGAAGGACAUGAGGAUCACCCAUGUACAUGUCGUCGGUCGUCACCGGGC [salish99_ExNG1_r04_211] (Eterna round: R96, puzzle: Exclusion NG 1)”, for which the “apparent KD of MS2 coat protein” value (input ligand: FMN 200 uM) was found to be 0.107 µM, the “apparent KD of MS2 coat protein” value under setting [4] worked out at 0.0241 µM and the “apparent KD of MS2 coat protein” value (input ligand: none) was 0.0294 µM.
The like results for “CUCCGGCGUGUAGGAUAUGGUUCCGUUUUGGUUCCAGAAGGACAUGAGGAUCACCCAUGUACAUGUCGUCGGUCGUCACCGGGC [salish99_ExNG1_r04_214] (Eterna round: R96, puzzle: Exclusion NG 1)” were, in that order, 0.104 µM, 0.0222 µM and 0.0298 µM.
On to “CUCCUCAUGACGCCCAACCACAUGAGGAUCACCCAUGUGCAGGCUUUUUGUCGUCUUAUAAUAAAACCGAGGAUGCG [Edusveti] (puzzle: Sensor v3, turn-off variant 1)”, for which the “apparent KD of MS2 coat protein” value under setting [1] was 0.0133 µM, the “apparent KD of MS2 coat protein” value under setting [2] is 0.0494 µM and the “apparent KD of MS2 coat protein” value under setting [3] was determined as 0.013 µM.
The like results for “CUCCUCAUGGCGCCUAAACACAUGAGGAUCACCCAUGUACAGGCUUUUUGCCGUCUUAUAAUAAAACCGAGGAGGCG [Atrelele] (puzzle: Sensor v3, turn-off variant 1)” were, in that order, 0.021 µM, 0.146 µM and 0.0236 µM.
